The supplement of paper PMC10567573

B1: PCDHGA10 (parent)
chain: FGIEIEVTDINDNAPKFQAENLDV

Variants of: B1
Assay: protein stability index of a GFP-peptide fusion (GPS, HEK-293T) (PSI 1-6); higher = more stable
Settings: c terminus: a fixed tail appended
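Further: lentivirally expressed fusions sorted by FACS into six bins by GFP to DsRed ratio, PSI derived from sequencing read proportions per bin multiplied by bin number.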

Protein stability index of substitutions, site by site:
K16: G 3.56 | W 1.72 | Y 2.18 | P 3.31 | S 2.52 | Q 3.35 | H 2.76 | A 2.53 | V 2.64 | T 2.91 | M 3.07 | D 3.46 | E 3.88 | R 3.02 | C 2.45 | L 2.31 | F 2.21 | I 2.48 | N 2.94
D23: M 2.52 | K 2.08 | V 2.56 | I 1.93 | F 1.55 | H 1.8 | T 1.95 | C 1.82 | A 2.3 | Q 2.42 | N 2.85 | G 2.29 | E 2.59 | L 2.17 | S 2.06 | W 1.46 | Y 1.69 | P 2.32 | R 1.93
D12: M 1.75 | V 2.05 | I 1.84 | Y 1.56 | P 2.42 | K 2.98 | R 2.48 | T 1.99 | L 1.49 | H 2.16 | F 1.94 | A 2.28 | C 1.8 | S 2.25 | G 2.58 | W 1.6 | Q 2.71 | N 2.15 | E 3.13
F17: D 4.36 | P 4.03 | R 3.9 | T 4.14 | L 3.33 | Q 4.14 | C 3.73 | Y 3.18 | M 3.58 | V 3.65 | A 4.12 | K 4.42 | E 4.81 | W 2.52 | S 3.98 | G 3.94 | I 3.37 | N 4.15 | H 4.28
I10: Y 2.81 | Q 4.05 | V 3.24 | P 3.83 | K 4.61 | H 4.04 | R 3.73 | L 2.63 | C 3.4 | S 3.91 | D 4.78 | A 3.61 | G 3.67 | T 3.28 | W 2.03 | N 4.14 | E 4.23 | F 2.4 | M 3.28
E20: R 1.83 | W 2.11 | H 2.02 | I 2.72 | C 1.61 | F 2.51 | P 2.13 | T 2.34 | Q 2.4 | Y 2.59 | S 2.71 | N 2.27 | V 1.91 | D 2.82 | K 2.08 | L 1.33 | M 2.06 | A 2.15 | G 2.11
V24: W 2.81 | P 3.4 | N 3.28 | A 3.48 | E 3.46 | L 3.43 | R 3.71 | M 2.5 | D 4.22 | F 2.64 | I 2.56 | S 3.5 | Q 3.62 | T 3.47 | C 2.8 | Y 2.93 | H 3.6 | G 3.7 | K 3.52
A14: W 1.67 | N 3.35 | K 3.1 | S 3.13 | Y 1.71 | I 2.49 | M 2.42 | D 3.89 | F 2.35 | H 2.79 | T 2.9 | Q 3.58 | C 2.46 | E 3.83 | V 3.4 | P 2.69 | L 1.98 | G 3.08 | R 2.83
L22: G 3.97 | W 2.53 | P 3.36 | M 2.84 | T 3.65 | F 2.66 | E 4.39 | K 4.02 | R 3.7 | H 3.4 | S 4.17 | C 3.27 | Y 2.83 | D 4.21 | I 3.02
